The values that follow come from paper PMC2175517.

This series addresses poly(ADP-ribosyl)ated GST-Sp1-8xHis (UniProt P08047). As to the kind of experiment: EMSA. Conditions: after PARP-1 + 200 uM NAD+ + nicked DNA; approximately 71% reduction; EMSA in buffer D (5 mM HEPES, 10% glycerol, 0.05 mM EDTA, 0.125 mM PMSF), 25 ng poly(dI-dC) (omitted for recombinant Sp1), room temperature 5 min; pH not …. On the technique in general: In EMSA bound probe runs differently from free probe, usually more slowly.
Sequence of UniProt P08047 (P08047 whole entry): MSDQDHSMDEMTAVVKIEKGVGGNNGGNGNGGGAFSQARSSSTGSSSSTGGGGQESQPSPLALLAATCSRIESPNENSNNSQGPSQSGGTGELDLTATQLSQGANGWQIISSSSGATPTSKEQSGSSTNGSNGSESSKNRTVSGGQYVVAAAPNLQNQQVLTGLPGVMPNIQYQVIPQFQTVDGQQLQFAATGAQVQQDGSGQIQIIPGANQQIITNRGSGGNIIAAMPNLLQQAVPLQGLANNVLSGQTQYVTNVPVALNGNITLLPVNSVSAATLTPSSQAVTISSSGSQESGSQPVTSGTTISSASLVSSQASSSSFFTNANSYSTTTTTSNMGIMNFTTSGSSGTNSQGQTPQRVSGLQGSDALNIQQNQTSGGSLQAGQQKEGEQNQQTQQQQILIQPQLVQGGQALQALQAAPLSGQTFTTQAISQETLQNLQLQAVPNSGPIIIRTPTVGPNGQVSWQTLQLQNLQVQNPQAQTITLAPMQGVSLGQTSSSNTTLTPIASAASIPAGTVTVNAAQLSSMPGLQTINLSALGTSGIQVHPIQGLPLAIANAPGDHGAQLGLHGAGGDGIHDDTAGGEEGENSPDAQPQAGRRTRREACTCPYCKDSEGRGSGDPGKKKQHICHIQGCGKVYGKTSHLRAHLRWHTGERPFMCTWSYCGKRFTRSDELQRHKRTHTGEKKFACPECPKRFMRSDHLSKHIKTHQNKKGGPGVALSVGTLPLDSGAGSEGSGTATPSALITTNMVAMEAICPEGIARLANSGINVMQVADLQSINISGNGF

For “GATCATATCTGCGGGGCGGGGCAGACACAG (double strand) [Sp1 oligonucleotide]”, the binding signal (% of unmodified Sp1) was determined as 29.
